Values belong to the molecule of their own block, whether it stands above or below them.
What was measured:
[1] = target: T1, CtcQ (Kitasatospora aureofaciens, UniProt S4S3E3); experiment: X-ray crystal structure (co-crystal); type: binding; settings: co-crystallised with 5 mM NAD and 5 mM FAD, pH 7.5
T1 construct: full length; crystal: N-terminal His10 tag cut by PreScission protease; reductase assay: C-terminal His6 tag kept; homodimer; primers encode N-terminus MPPEPLS and C-terminus TLAAEG

[2] = target: T2, CtcP (Kitasatospora aureofaciens, UniProt A0A1E7MYN1); experiment: X-ray crystal structure (FAD soak); type: binding; settings: chloride ion bound near isoalloxazine ring; soaked with 1 mM FAD, 20 mM NaCl, pH 7.5, 16 h
T2 construct: full length, 555 residues; N-terminal His10 tag cut by PreScission protease; expressed in E. coli BL21(DE3); homodimer; primers encode N-terminus MTDTTAD and C-terminus AMRVKP
T2 sequence (A0A1E7MYN1 whole entry): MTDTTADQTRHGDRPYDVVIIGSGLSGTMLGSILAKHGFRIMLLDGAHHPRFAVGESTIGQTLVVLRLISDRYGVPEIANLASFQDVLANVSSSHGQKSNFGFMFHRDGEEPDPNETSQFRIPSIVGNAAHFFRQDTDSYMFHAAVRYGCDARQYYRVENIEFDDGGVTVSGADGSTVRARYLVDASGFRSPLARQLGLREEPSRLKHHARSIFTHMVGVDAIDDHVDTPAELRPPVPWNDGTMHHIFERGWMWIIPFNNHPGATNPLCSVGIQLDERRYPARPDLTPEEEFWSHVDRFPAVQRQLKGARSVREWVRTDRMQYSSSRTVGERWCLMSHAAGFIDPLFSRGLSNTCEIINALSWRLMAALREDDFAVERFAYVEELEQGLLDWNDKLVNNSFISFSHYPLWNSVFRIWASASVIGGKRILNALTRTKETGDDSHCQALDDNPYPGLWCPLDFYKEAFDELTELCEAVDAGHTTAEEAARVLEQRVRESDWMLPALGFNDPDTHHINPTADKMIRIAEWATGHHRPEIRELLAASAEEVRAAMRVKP

[3] = target: T1, CtcQ; experiment: NADH oxidation, absorbance at […] nm; type: biochemical; settings: 0.1 mM FMN, 1 mM NADH, 1.7 uM CtcQ (C-terminal His6), 20 mM HEPES pH 7.5
[4] = target: CtcP (1-516), C-terminal truncation mutant lacking the helical hairpin (residues 1-516, P516G) (Kitasatospora aureofaciens); experiment: SEC; S-200 column in 40 mM Tris pH 8.0, 100 mM NaCl, 2 mM BME; position of monomeric PltM as marker
[5] = target: halogenase CtcP from Kitasatospora aureofaciens, full-length (Kitasatospora aureofaciens); experiment: as above
[6] = target: halogenase CtcP from Kitasatospora aureofaciens, full-length (Kitasatospora aureofaciens); experiment: crystal structure; CtcP in complex with PEG and sulfate; hanging drops, 100 mM HEPES pH 7.0, 1.6 M ammonium sulfate, 2% PEG 400, 21 °C
[7] = target: halogenase CtcP from Kitasatospora aureofaciens, full-length (Kitasatospora aureofaciens); experiment: crystal structure; CtcP in complex with FAD and Cl-; crystals from 0.1 M HEPES pH 7.5, 26% PEG 4000, 0.2 M Li2SO4, 21 °C, soaked with 1 mM FAD for 16 h
[8] = target: the molecule itself; experiment: crystal structure; CtcQ in complex with FAD and NAD; hanging drops, 0.1 M Tris pH 7.5, 0.6 M KH2PO4, 0.6 M NaH2PO4, 21 °C, 5 mM NAD and 5 mM FAD

Molecule: Cc1cc2nc3c(=O)[nH]c(=O)nc-3n(C[C@H](O)[C@H](O)[C@H](O)COP(=O)(O)OP(=O)(O)OC[C@H]3O[C@@H](n4cnc5c(N)ncnc54)[C@H](O)[C@@H]3O)c2cc1C [FAD]
X-ray crystal structure (co-crystal) ([1]; flavin subsite, second FAD also in the NAD subsite of most active sites): determined the crystal structure of CtcQ in complex with FAD and NAD
X-ray crystal structure (FAD soak) [2]: We obtained crystals of the CtcP-FAD complex by soaking FAD into the CtcP crystals

Molecule: Cc1cc2nc3c(=O)[nH]c(=O)nc-3n(C[C@H](O)[C@H](O)[C@H](O)COP(=O)(O)O)c2cc1C [FMN]
NADH oxidation, absorbance at 340 nm [3]: CtcQ, which was highly active with either FAD or FMN as a substrate

Molecule: NC(=O)c1ccc[n+]([C@@H]2O[C@H](COP(=O)(O)OP(=O)(O)OC[C@H]3O[C@@H](n4cnc5c(N)ncnc54)[C@H](O)[C@@H]3O)[C@@H](O)[C@H]2O)c1 [NAD]
X-ray crystal structure (co-crystal) ([1]; U-shaped, stacked on FAD, text also calls the bound molecule NADH): determined the crystal structure of CtcQ in complex with FAD and NAD

stoichiometry N [4]: 2
Molecule: CtcP (1-516), C-terminal truncation mutant lacking the helical hairpin (residues 1-516, P516G) (domain or fragment)

stoichiometry N [5]: 2
stoichiometry N [6]: 2
stoichiometry N [7]: 2
Molecule: halogenase CtcP from Kitasatospora aureofaciens, full-length (enzyme)

B1: FAD reductase CtcQ from Kitasatospora aureofaciens (N-terminal tag removed) (enzyme, UniProt S4S3E3 1-191, looked up)
chain: MPPEPLSLPLDLAPGLVDGDTFLSIMGALPTGVTVVTTLGPDGEPYGLTCSAACSVSKAPPLLLVCINRDSRVLKALLERGEFAVNVLRGGGESTSARFAAPVDDRFRDVRWEPGSAGGVPVMSADVVAHAECRVAAALDAGDHTIVIGAVVAGGPRPEVPSPLMYWRRSYARWPVEEDPRTAALTLAAEG
notes: a second construct with a C-terminal His6 tag (pET22b) was used only for the reductase activity assay; also called flavin reductase CtcQ; source: E. coli BL21(DE3), purified (Ni2+-chelating chromatography, tag cleavage, S-200 size exclusion); not shown: His10, N-terminal, cleaved
stoichiometry N [8]: 2

From paper PMC12400496 (Bioscience Reports, 2025)
